Assay results: US20220040297A1

Key:
[1] = target: CD3ε homodimer protein (human) (UniProt P07766); experiment: SPR, CD3e immobilized
[2] = target: CD3ε homodimer protein (human) (UniProt P07766); experiment: SPR, immobilized CD3ε homodimer
[3] = target: CD3ε homodimer protein (human) (UniProt P07766); experiment: SPR, CD3ε homodimer on chip

CD3ε homodimer protein (human), sequence (P07766 23-126 limits assumed): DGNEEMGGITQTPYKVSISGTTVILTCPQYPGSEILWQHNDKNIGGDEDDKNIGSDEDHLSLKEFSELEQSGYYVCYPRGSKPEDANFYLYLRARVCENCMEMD

Binder | KD ratio to GLS3000 [1] | ratio of amounts bound (vs GLS3000) [2] | ratio of amounts bound vs CE115HA000 [3]
GLS3000 H27dM (antibody, IgG1, name in Kabat numbering, V domains shown) VH: QVQLVESGGGVVQPGRSLRLSCAASGFTFSNAWMHWVRQAPGKGLEWVAQIKAKSNNYATYYAESVKGRFTISRDDSKNSLYLQMNSLKTEDTAVYYCRYVHYGAYYGVDAWGQGTTVTVSS VL: DIVMTQSPLSLPVTPGEPASISCRSSQSLVMSNRNTYLHWYQQKPGQAPRLLIYKVSNRFSGVPDRFSGSGSGTDFTLKISRVEAEDVGVYYCGQGTQVPYTFGQGTKLEIK | 3.43 | 0.03 | –
GLS3000 H27dD (antibody, IgG1, name in Kabat numbering, V domains shown) VH: QVQLVESGGGVVQPGRSLRLSCAASGFTFSNAWMHWVRQAPGKGLEWVAQIKAKSNNYATYYAESVKGRFTISRDDSKNSLYLQMNSLKTEDTAVYYCRYVHYGAYYGVDAWGQGTTVTVSS VL: DIVMTQSPLSLPVTPGEPASISCRSSQSLVDSNRNTYLHWYQQKPGQAPRLLIYKVSNRFSGVPDRFSGSGSGTDFTLKISRVEAEDVGVYYCGQGTQVPYTFGQGTKLEIK | 13600 | – | –
CE115HA000 Y97R (antibody, name in Kabat numbering, V domains shown) VH: QVQLVESGGGVVQPGRSLRLSCAASGFTFSNAWMHWVRQAPGKGLEWVAQIKAKSNNYATYYAESVKGRFTISRDDSKNSLYLQMNSLKTEDTAVYYCRYVHRGAYYGVDAWGQGTTVTVSS VL: DIVMTQSPLSLPVTPGEPASISCRSSQSLVHSNRNTYLHWYQQKPGQAPRLLIYKVSNRFSGVPDRFSGSGSGTDFTLKISRVEAEDVGVYYCGQGTQVPYTFGQGTKLEIK | – | – | 9.27
CE115HA000 Y97S (antibody, name in Kabat numbering, V domains shown) VH: QVQLVESGGGVVQPGRSLRLSCAASGFTFSNAWMHWVRQAPGKGLEWVAQIKAKSNNYATYYAESVKGRFTISRDDSKNSLYLQMNSLKTEDTAVYYCRYVHSGAYYGVDAWGQGTTVTVSS VL: DIVMTQSPLSLPVTPGEPASISCRSSQSLVHSNRNTYLHWYQQKPGQAPRLLIYKVSNRFSGVPDRFSGSGSGTDFTLKISRVEAEDVGVYYCGQGTQVPYTFGQGTKLEIK | – | – | 9.28
CE115HA000 V95E (antibody, name in Kabat numbering, V domains shown) VH: QVQLVESGGGVVQPGRSLRLSCAASGFTFSNAWMHWVRQAPGKGLEWVAQIKAKSNNYATYYAESVKGRFTISRDDSKNSLYLQMNSLKTEDTAVYYCRYEHYGAYYGVDAWGQGTTVTVSS VL: DIVMTQSPLSLPVTPGEPASISCRSSQSLVHSNRNTYLHWYQQKPGQAPRLLIYKVSNRFSGVPDRFSGSGSGTDFTLKISRVEAEDVGVYYCGQGTQVPYTFGQGTKLEIK | – | – | 9.24
CE115HA000 D101R (antibody, name in Kabat numbering, V domains shown) VH: QVQLVESGGGVVQPGRSLRLSCAASGFTFSNAWMHWVRQAPGKGLEWVAQIKAKSNNYATYYAESVKGRFTISRDDSKNSLYLQMNSLKTEDTAVYYCRYVHYGAYYGVRAWGQGTTVTVSS VL: DIVMTQSPLSLPVTPGEPASISCRSSQSLVHSNRNTYLHWYQQKPGQAPRLLIYKVSNRFSGVPDRFSGSGSGTDFTLKISRVEAEDVGVYYCGQGTQVPYTFGQGTKLEIK | – | – | 9.24
